# Results from the DeepSol protein solubility set.
# Experiment: soluble on expression in E. coli; label from the status in PepcDB or PDB records
row,Sequence,soluble on expression in E. coli
1,SPASGPGPRRVQRRAWPPDKEQEKEKKSVICVEGNIASGKTTCLEFFSNATDVEVLTEPVSKWRNVRGHNPLGLMYHDASRWGLTLQTYVQLTMLDRHTRPQVSSVRLMERSIHSARYIFVENLYRSGKMPEVDYVVLSEWFDWILRNMDVSVDLIVYLRTNPETCYQRLKKRCREEEKVIPLEYLEAIHHLHEEWLIKGSLFPMAAPVLVIEADHHHMERMLELFEQNRDRILTPENRKHCP,soluble
2,SPSKVQELSVYEINELDRHSPKILKNAFSLMFGLGDLVPFTNKLYTGDLKKRVGITAGLCVVIEHVPEKKGERFEATYSFYFGDYGHLSVQGPYLTYEDSFLAITGGAGIFEGAYGQVKLQQLVYPTKLFYTFYLKGLANDLPLELTGTPVPPSKDIEPAPEAKALEPSGVISNYTN,not soluble
3,SQEKVSIEQQLAVESIRKFLNSKTSYDVLPVSYRLIVLDTSLLVKKSLNVLLQNSIVSAPLWDSKTSRFAGLLTTTDFINVIQYYFSNPDKFELVDKLQLDGLKDIERALGVDQLDTASIHPSRPLFEACLKMLESRSGRIPLIDQDEETHREIVVSVLTQYRILKFVALNCRETHFLKIPIGDLNIITQDNMKSCQMTTPVIDVIQMLTQGRVSSVPIIDENGYLINVYEAYDVLGLIKGGIYNDLSLSVGEALMRRSDDFEGVYTCTKNDKLSTIMDNIRKARVHRFFVVDDVGRLVGVLTLSDILKYILLGS,soluble
4,SQLADAEKINVPFPSSQTVVRLGQIGIDHHNQNYFPLMVGNYILGGGTLVSRLGTEVREKRGLTYGIDSQFVPMLGEGPFIISLSTKNSEARNALHITQDTLIKFIKNGPNQEELASAKQYLTGSFPLSLGSNTNIANLLLRMAFYHLPDNYLDTYVAKINAVTDAEIKQAFQQQVNPEKLLLVTVGQ,not soluble
5,SQLVECVPNFSEGKNQEVIDAISRAVAQTPGCVLLDVDSGPSTNRTVYTFVGRPEDVVEGALNAARAAYQLIDMSRHHGEHPRMGALDVCPFIPVRGVTMDECVRCAQAFGQRLAEELGVPVYLYGEAARTAGRQSLPALRAGEYEALPEKLKQAEWAPDFGPSAFVPSWGATVAGARKFLLAFNINLLSTREQAHRIALDLREQGRGKDQPGRLKKVQAIGWYLDEKNLAQVSTNLLDFEVTGLHTVFEETCREAQELSLPVVGSQLVGLVPLKALLDAAAFYCEKENLFLLQDEHRIRLVVNRLGLDSLAPFKPKERIIEYLV,soluble
6,SRKRLSAPELRLSLTKGPGNDGASPTQSAPSSPDGSSDLEIDELETPSDSEQLDSGHEFEWEDELPRAEGLGTSETAERLGRGCMWDVTGEDGHHWRVFRMGPREQRVDMTVIEPYKKVLSHGGYHGDGLNAVILFASCYLPRSSIPNYTYVMEHLFRYMVGTLELLVAENYLLVHLSGGTSRAQVPPLSWIRQCYRTLDRRLRKNLRALVVVHATWYVKAFLALLRPFISSKFTRKIRFLDSLGELAQLISLDQVHIPEAVRQLDRDLHGSGGT,soluble
7,SRLSIDLYPKIETSNIMVVTSYAGASASDIENNVTKVLENTLNGVSNLKHITSKSRENASVITLQFNEGVDIEVATNDVRDKLDAVSNFLPDDVNKPMIFKFGTDDIPITMLSVQAKESTMALSKILEDKVTNALARLDGVGAVSIMGTVKREIQVYCDPAKLEAYNLTVEAVSQIISAENKNVPAGLIDLGNKTSSIRIQGEFADARQLNQIVVASVGGRNVYLSDVARVEDTHAENEQESYNNNVRGAMIMINKQSGANSVAISRAVRGALPEIQASLPSDVELGTIFDTSDNIVNTINSLRD,not soluble
8,SRVLMEQPGYAQMRKLILFQQYQFEPLFVRQKVGFDIDSVTQSTADALYITPSNQYPMGTTLNTEQRAQIIEWASNQEAWILEDDYDSEFQFAHRPYTSLQGLAAQMGRDERVLYIGSFSKVMFNGLRLGYLVVPESLVDKCLMVKDALSGDTPSHIQAAMADFISEGSLLRHIRKMRRVYKSKHEQVCFSIQHYFGDKVRVISQAAGLHVTLSWQQGIDENTWTQRAKKAGIVMRPVSFYEHPDFKARDWQGVVIGYGNVRLDNIDPLIKRLFELFDV,not soluble
9,SSAKSAISKEIFAPLDERMLGAVQVKRRTKKKIPFLATGGQGEYLTYICLSVTNKKPTQASITKVKQFEGSTSFVRRSQWMLEQLRQVNGIDPNGDSAEFDLLFENAFDQWVASTASEKCTFFQILHHTCQRYLTDRKPEFINCQSKIMGGNSILHSAADSVTSAVQKASQALNERGERLGRAEEKTEDLKNSAQQFAETAHKLAMKHKC,soluble
10,SSDKDDIETPLLTEAAPILEDGNCEPAKNSESVDQGAKPESKSEPVVSTRKRPETKPSSDLETSKVLPIQDNVSKDVPQTRWGYWGSWGKSILSSASATVATVGQGISNVIEKAETSLGIPSPSEISTEVKYVAGETNAKENENSSPVAGAFGVFSTISTAVQSTGKSVISGGLDALEFIGKKTMDVIAEGDPGFKRTKGLMNRNATLSQVLREAKEKEEIRTSNEVTVETDKKTHYGLLFDEFQGLSHLEALEMLSQESEIKVKSILNSLSGEELETLKVELEQLKETFSLAEFCEEEEEEKKGDEDFTKDITELFSQLHVSSKPEKLARARNTAHEWIRKSLTKPLAENEEGEKQSEAENTEQVNKNSIEDIHAFAIRSLAELTACSIELFHKTAALVLHGRKQEVTAIERSQTLSQMTIVLCKELSSLSKEFTTCLTTAGVKEMADVLNPLITAVFLEASNSASYIQDAFQLLLPVLEISLIENKIESHRHELQGQKPLLEH,soluble
11,SSENQKEVSPPQAISVKSEASSSIFSKPISTSSPAGLAAAQRVTPGKLSTLLLEMGPLAIRHITQTLCLDIPCFKDLSSSKQRRLIMSAMESGDKEKSVVFEKIGWGQWSAKRVDPANFDKELEATNFANAKVKDLISQESQRRKSNNSNSNSGGKVEMPMKVEHNITNIDGATTPPTAVASTTIPVNIKRSKSPLAAANVVYIDENALASEDEDEEFDEDDHHLHYQNKSRNSSNNFGKSSNGDPYSFGRRRSQVVFADSTPENIEHEIIAQKIRPLLRNRRRSSIKPHTPFISKLNTHQDSSYLSPNTTSTTTPSNNNSNSNQAKIDLEKLTATSEPTSRRASRLSVSKESSIRSTLFPNKNYLIVTTNPNSKATSVSTSPKLEEQMNVSSNPIVLSDKEKHRVASQHLNGESSPQLVPHSHHQPHSDTDEEDWESIGAASLRNNSLAPNIDSVASSTNGVVSPKPTNPSFTNSQNGDIEPPLQHDQQKHEQQPRNGEDNSAAFLLMSLKS,soluble
12,SSESIRMVLIGPPGAGKGTQAPNLQERFHAAHLATGDMLRSQIAKGTQLGLEAKKIMDQGGLVSDDIMVNMIKDELTNNPACKNGFILVGFPRTIPQAEKLDQMLKEQGTPLEKAIELKVDDELLVARITGRLIHPASGRSYHKIFNPPKEDMKDDVTGEALVQISDDNADALKKRLAAYHAQTEPIVDFYKKTGIWAGVDASQPPATVWADILNKLGKN,soluble
13,SSFSWDNCDEGKDPAVIRSLTLEPDPIIVPGNVTLSVMGSTSVPLSSPLKVDLVLEKEVAGLWIKIPCTDYIGSCTFEHFCDVLDMLIPTGEPCPEPLRTYGLPCHCPFKEGTYSLPKSEFVVPDLELPSWLTTGNYRIESVLSSSGKRLGCIKIAASLKGI,soluble
14,SSKRKRKRSVQEGENPDDGVRGSPPEDYRLGQVASSLFRGEHHSRGGTGRLASLFSSLEPQIQPVYVPVPKQTIKKTKRNEEEESTSQIERPLSQEPAKKVKAKKKHTNAEKKLADRESALASADLEEEIHQKQGQKRKNSQPGVKVADRKILDDTEDTVVSQRKKIQINQEEERLKNERTVFVGNLPVTCNKKKLKSFFKEYGQIESVRFRSLIPAEGTLSKKLAAIKRKIHPDQKNINAYVVFKEESAATQALKRNGAQIADGFRIRVDLASETSSRDKRSVFVGNLPYKVEESAIEKHFLDCGSIMAVRIVRDKMTGIGKGFGYVLFENTDSVHLALKLNNSELMGRKLRVMRSVNKEKFKQQNSNPRLKNVSKPKQGLNFTSKTAEGHPKSLFIGEKAVLLKTKKKGQKKSGRPKKQRKQK,soluble
15,SSQPDPTPEQLNKSSQFTGVMGNLRCLYDNHFVEGTNVRSTGQLLQHDLIFPIKDLKLKNYDSVKTEFNSKDLATKYKNKDVDIFGSNYYYNCYYSEGNSCKNAKKTCMYGGVTEHHRNQIEGKFPNITVKVYEDNENILSFDITTNKKQVTVQELDCKTRKILVSRKNLYEFNNSPYETGYIKFIESSGDSFWYDMMPAPGAIFDQSKYLMLYNDNKTVSSSAIAIEVHLTKK,soluble
16,SSYCKQEGKDCIIFVTKEDHEAPSNAELVEDDPNDPYEDHGLILPNGDINWNCPCLGGMASGPCGQQFKDAFSCFHYSKEEIKGSDCVENFRGMQECMQKYPELYPQEDDNDSAPSGGANTAPTDSLPASSTDSTAAAATENPATS,soluble
17,STAIDGQGKDQVIFVTKEEHETPSTVKQEEEDTNEDPKGKGLILPTGEINWDCPCLGGMASGVCGEQFKSAFTCFHFSQEEVKGSDCLEQFISMQECFHQHPELFPQDNNDLQTADPDQEHSSSISDFTTNKESDSLPTETDEIPTQLPVVS,soluble
18,STDNTTSSDLIKNVETARSTIDGLIESLGWIELNYRCERQCNWDEVCYTPSWGPSPMGMTEPGSHNEGFGTHFDESRQRLVINSKLQCININDLMVNRNH,soluble
19,STEDLLTYTLDEAERLTGSTLGFFDLISDDQSIMRSACSSNAKKDNCGHARHPIVINFKAPADVLQKKRAIIHNDHATLRHCNSKSVSHKEAIRELIVPVIRNGKVMAILEVGNKPANYDQNDIQLLNELSGVAWDIIARKHAEDSAQKTMK,not soluble
20,STQTSRVTLVGEMLPAYNEILTPEALSFLKELHENFNERRIELLQKRMKKQQKIDAGEFPKFLEETKRIREADWTIAKLPKDLEDRRVEITGPVDRKMVINALNSGAHLFMADFEDSNSPTWENAIEGQINLRDAVKGTISHKNENGKEYRLNSKTAVLIVRPRGWHLEEKHMQVDGKNMSGSLVDFGLYFFHNAKALLEKGSGPYFYLPKMESYLEARLWNDVFVFAQKYIGIPNGTIKATVLLETIHASFEMDEILYELKDHSAGLNCGRWDYIFSFLKAFRNHNEFLLPDRAQVTMTAPFMRAYSLKVIQTCHRRNAPAIGGMAAQIPIKNNPEANEAAFEKVRADKEREALDGHDGTWVAHPGLVPVAMEVFNHIMKTPNQIFRKREEIHVTEKDLLEVPVGTITEEGLRMNISVGIQYIASWLSGRGAAPIYNLMEDAATAEISRAQVWQWIRHEGGKLNDGRNITLELMEELKEEELAKIEREIGKEAFKKGRFQEATTLFTNLVRNDEFVPFLTLPGYEIL,soluble
21,STQVSQATSQPINFQVQKDGSSEKSHMDDYMQHPGKVIKQNNKYYFQTVLNNASFWKEYKFYNANNQELATTVVNDNKKADTRTINVAVEPGYKSLTTKVHIVVPQINYNHRYTTHLEFEKAIPTLADAAK,not soluble
22,SVCAEAYNPDEEEDDAESRIIHPKTDDQRNRLQEACKDILLFKNLDPEQMSQVLDAMFEKLVKEGEHVIDQGDDGDNFYVIDRGTFDIYVKCDGVGRCVGNYDNRGSFGELALMYNTPRAATITATSPGALWGLDRVTFRRIIVKNNAKKRKMYESFIESLPFLKSLEVSERLKVVDVIGTKVYNDGEQIIAQGDSADSFFIVESGEVRITMKRKGKSDIEENGAVEIARCLRGQYFGELALVTNKPRAASAHAIGTVKCLAMDVQAFERLLGPCMEIMKRNIATYEEQLVALFGTNMDIVEPTA,soluble
23,SVHPALEFSDCYSDSPDFRERLKCYENELEKTNKFLKDVIKDGNNVINTFKEYSLAVQKFSQTLQSFQFDFIGDTLTDDEMNIAESFREFAGLLQDVEEARMMLVQNASDLLIKPLEKFRKEQIGVTKERRKKFEKESEKYYSQLDKHVNLSSKKKETQLQEADEQLDKERQAFYESSVEYVYQIQQVQEKKKFDVVEPVLAFLQSILTLNNLTVEMYTFRNKGTKCNTGEIPFQKVQFCTIQVDISTFMVHFCTFKLYFCTFKIP,soluble
